Common to all, as to assay type: biochemical, Aspergillus flavus
The subject of series [1] is O=c1[nH]c(=O)c2[nH]c(=O)[nH]c2[nH]1. Briefly: Michaelis-Menten kinetics, RasU_D8. As to conditions: other: role: substrate; RasU_D8 (SEQ ID NO: 236); pH 10.5; 25.0 °C. From the text: (§1) Select Aspergillus flavus uricase variants RasU_D12, as well as its subvariants RasU_D12-A56T, and RasU_D12-W160E; and RasU_D8, as well as its subvariants RasU_D8-T33V, RasU_D8-Y65H, RasU_D8-W160E, RasU_D8-A209N, and RasU_D8-T210K were subject to further characterization by comparing their expression yields, Michaelis-Menten kinetics parameters, and thermostability measured by temperatures at which 50% of normal activity was lost determined by heat stress activity assay, with those of the wild type Aspergillus flavus uricase. As the names of the subvariants indicated, the subvariants of RasU_D12 were constructed by introducing an additional amino acid substitution A56T or W160E into the RasU_D12 variant, while the subvariants of RasU_D8 were constructed by introducing an additional amino acid substitution T33V, Y65H, W160E, A209N, or T210K into the RasU_D8 variant. Each of the additional amino acid substitutions was to address residual T cell epitopes in the RasU_D8 or RasU_D12 variant. The expression yields were determined as described above in the “Methods” section. The determination of the Michaelis-Menten kinetics parameters kcat and KM, and the heat stress activity assay were likewise performed using the methods described in Example 1. […]

For series [2] the test system is unchanged. Briefly: Michaelis-Menten kinetics, RasU_D8-W160E. To be noted: other: role: substrate; RasU_D8-W160E (SEQ ID NO: 271); pH 10.5; 25.0 °C.
Excerpt: as §1

The test system is the same in series [3]. As to the kind of experiment: Michaelis-Menten kinetics, RasU_D12-W160E. As to conditions: other: role: substrate; RasU_D12-W160E (SEQ ID NO: 268); pH 10.5; 25.0 °C.
Excerpt: as §1

Series [4] has the same test system. As to the kind of experiment: Michaelis-Menten kinetics, RasU_D8-Y65H. To be noted: other: role: substrate; RasU_D8-Y65H (SEQ ID NO: 270); pH 10.5; 25.0 °C.
Excerpt: as §1

Series [5] shares this test system. As to the kind of experiment: Michaelis-Menten kinetics, RasU_D12-A56T. To be noted: other: role: substrate; RasU_D12-A56T (SEQ ID NO: 267); pH 10.5; 25.0 °C.
Excerpt: as §1

For series [6] the test system is unchanged. Briefly: Michaelis-Menten kinetics, RasU_D8-T33V. To be noted: other: role: substrate; RasU_D8-T33V (SEQ ID NO: 269); pH 10.5; 25.0 °C.
Excerpt: as §1

Series [7] shares this test system. Briefly: Michaelis-Menten kinetics, RasU_D8-A209N. As to conditions: other: role: substrate; RasU_D8-A209N (SEQ ID NO: 272); pH 10.5; 25.0 °C.
Excerpt: as §1

Series [8] has the same test system. As to the kind of experiment: Michaelis-Menten kinetics, RasU_D8-T210K. To be noted: other: role: substrate; RasU_D8-T210K (SEQ ID NO: 273); pH 10.5; 25.0 °C.
Excerpt: as §1

Series [9] shares this test system. As to the kind of experiment: Michaelis-Menten kinetics, RasU_D12. To be noted: other: role: substrate; RasU_D12 (SEQ ID NO: 229); pH 10.5; 25.0 °C.
Excerpt: as §1

The values that follow come from patent US20260308536A1, “NOVEL URICASE VARIANTS AND METHODS OF USE THEREOF” (priority 2023, published 2026).

A word on the Km: it is the concentration of substrate that gives half-maximal velocity. Usually kcat stands for the number of substrate molecules converted per active site and unit of time at saturation. As to “Aspergillus flavus uricase variant RasU_D8 (Aspergillus flavus; A230N/A241D/A97K/E42N/I83E/N101D/S148D/V54N)”, in series [1], the Km turned out to be 900 ± 200 µM and the kcat was 0.8 ± 0.1 s⁻¹.

As to “Aspergillus flavus uricase variant RasU_D8-W160E (Aspergillus flavus; A230N/A241D/A97K/E42N/I83E/N101D/S148D/V54N/W161E)”, in [2], the Km was 600 ± 200 µM and the turnover number (kcat) came out at 1.2 ± 0.2 s⁻¹.

Consider “Aspergillus flavus uricase variant RasU_D12-W160E (Aspergillus flavus; A230N/A241D/A97K/E42N/I83E/N101D/S148D/T211K/W161E)”, for which, in series [3], the Km worked out at 1700 ± 1000 µM and the kcat was found to be 1.7 ± 0.5 s⁻¹.

For “Aspergillus flavus uricase variant RasU_D8-Y65H (Aspergillus flavus; A230N/A241D/A97K/E42N/I83E/N101D/S148D/V54N/Y66H)”, in series [4], the Km came out at 3000 ± 1000 µM and the kcat is 1.7 ± 0.5 s⁻¹.

Consider “Aspergillus flavus uricase variant RasU_D12-A56T (Aspergillus flavus; A230N/A241D/A57T/A97K/E42N/I83E/N101D/S148D/T211K)”, for which, in [5], the Km was 1500 ± 600 µM and the kcat is 1.4 ± 0.3 s⁻¹.

Take “Aspergillus flavus uricase variant RasU_D8-T33V (Aspergillus flavus; A230N/A241D/A97K/E42N/I83E/N101D/S148D/T34V/V54N)”: in series [6], the Michaelis constant (Km) came to 3000 ± 1000 µM and the catalytic constant (kcat) is 1.6 ± 0.5 s⁻¹.

Turning to “Aspergillus flavus uricase variant RasU_D8-A209N (Aspergillus flavus; A210N/A230N/A241D/A97K/E42N/I83E/N101D/S148D/V54N)”, in series [7], the Km was 1100 ± 300 µM and the kcat was 1.1 ± 0.1 s⁻¹.

Regarding “Aspergillus flavus uricase variant RasU_D8-T210K (Aspergillus flavus; A230N/A241D/A97K/E42N/I83E/N101D/S148D/T211K/V54N)”, in [8], the Km was found to be 3000 ± 2000 µM and the kcat stood at 2.0 ± 0.7 s⁻¹.

With “Aspergillus flavus uricase variant RasU_D12 (Aspergillus flavus; A230N/A241D/A97K/E42N/I83E/N101D/S148D/T211K)”, in series [9], the Km turned out to be 400 ± 100 µM and the kcat came out at 1.3 ± 0.1 s⁻¹.
